Measured values published in PMC314469, “Protein Interaction Networks by Proteome Peptide Scanning” (PLoS Biology, 2004).

T1: amphyphisin SH3 (AMPH_HUMAN), P49418
T1 chain: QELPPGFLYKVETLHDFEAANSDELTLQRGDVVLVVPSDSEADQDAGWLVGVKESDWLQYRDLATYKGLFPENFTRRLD


Legend:
[1] = molecular target: T1, amphyphisin SH3 (AMPH_HUMAN), P49418; assay: SPOT array
[2] = molecular target: endophilin SH3 (SH3G2_HUMAN), Q99962; assay: SPOT array

Binder | normalised SPOT signal, Boehringer light units (BLU); mean over the file's lines of this peptide [1] | normalised SPOT signal, Boehringer light units (BLU); mean over the file's lines of this peptide [2]
RPPPPRRPQGPPPP [Q04118 259-272] | 35.7 | 3820
RPPRPSRPPPPTPR [O43584 87-101] | 7260 | 13600
RPPVPPRPPRPPET [P52849 66-80] | 5400 | 8560
RPRRPRRPGPSDPA [Q96QG0 344-357] | 594 | 1340
RPSFLRRPVNQVVL [Q96MS0 257-270] | 43.9 | 171
AVKSLKRPLEATFD [Q9NR56 273-286] | 23.6 | 20.3
RPSTLRRPAYRDNQ [Q9Y520 1361-1374] | 44.5 | 112
RPTFLRRPINQVVL [Q9HCK4 226-239] | 169 | 575
RPTVPARPPATHPR [Q8TDP0 171-185] | 8140 | 14800
RPVAPRRPRDAVGQ [O43541 61-74] | 3660 | 1530
RPVLPQRPPEERPP [Q9BXX0 822-836] | 252 | 420
RQSQLQRPLRGFTW [Q9HCU0 92-105] | 1210 | 235
RQGPPQKPPGPAGP [P17600 586-600] | 46.6 | 325
RQHLPERPRRSPLS [Q9H6G5 120-133] | 5990 | 11100
RQIPPYRPPQQGPP [Q15532 247-261] | 170 | 68
RQLRLRRPDDGSRE [Q9NR61 553-566] | 39.7 | 61.3
AVKVFHRPWRRGWH [O60449 754-767] | 787 | 38.8
RQPRPPRPPLGDRP [Q9Y5R2 356-370] | 1470 | 4010
RQQTLPRPMKTLQR [O43161 2760-2773] | 79.1 | 67.7
RRARPRRPREAPAP [Q96Q34 14-27] | 35.2 | 144
RRSRLRRPAVRPTD [Q9BV18 42-55] | 41.8 | 28.4

Binder | normalised SPOT signal, Boehringer light units (BLU); mean over the file's lines of this peptide [1] | normalised SPOT signal, Boehringer light units (BLU); mean over the file's lines of this peptide [2]
RRDPPRRPPRNGYG [Q8WW30 14-28] | 8150 | 5040
AATQPLRPPRGTAA [P53814 641-654] | 11900 | 1480
RRGSPRRPRLSSSS [P46092 337-350] | 41.2 | 11.2
RRIHIKRPDDRAHL [Q9H3F6 298-311] | 20.8 | 70.2
RRKAPPRPPRPAAP [O60486 5-18] | 1450 | 9570
RRLALRRPEILVQP [Q96M62 296-309] | 9.3 | 31.7
RRLQPRRPGYPPRP [Q96EZ6 93-106] | 58.2 | 325
AVMALRRPGERQYR [Q9P0P1 47-60] | 38.9 | 206
RRNVPMKPPDEAKV [Q9H5Q5 226-240] | 2290 | 147
RRPALHRPIKVNLL [Q9NWI3 259-272] | 111 | 109
RRQPPARPPGPSTD [Q9BQA8 78-92] | 1490 | 9600
RRQPPVRPGRVHLP [P31152 530-543] | 4120 | 7420
RRQRPTRPPRQDKP [Q9Y520 1420-1434] | 6770 | 3120
RRRSPPRPPSRPAR [Q96JH1 1030-1044] | 21500 | 9450
RRSPPRRPAWTLGI [Q9HDB5 8-21] | 88.8 | 1580
RSEAPRRPSRKGLR [Q14839 1380-1393] | 12500 | 9710
RSGNLKRPKIGKRF [Q9Y6X4 343-356] | 13.4 | 50.1
RSKSPRRPSPTARG [Q9BZW7 5-18] | 41.9 | 121
AVPPPSRPQRLSSL [Q9NU00 50-63] | 15600 | 7470
RSQTPERPAKKIRE [Q9Y2N3 421-434] | 283 | 587
RSRSLHRPAKTSEL [O95996 1839-1852] | 170 | 187
